Experimental data reported in patent publication US20240301031A1 (JIANGSU HENGRUI PHARMACEUTICALS, published 2024).

How the values were obtained:
[1] = molecular target: T1, human BAFF (10056-HNCH, Sino biological) (human, UniProt Q9Y275 134-285); experiment: competition ELISA: biotin-labeled BAFF to coated BAFF-R
T1 construct: Bought protein
Description: The blocking activity of the antibodies and the fusion proteins for receptors and ligands such as BAFF/BAFF-R, BAFF/BCMA, BAFF/TACI, APRIL/BCMA, APRIL/TACI, and p40/IL-12R1 was assayed by the ELISA method. The specific procedures were as follows:
(§1) A receptor protein was diluted to 2 μg/mL with PBS at pH 7.4 (BasalMedia, B320) and added to a 96-well microplate (Corning, 3590) at 100 μL/well. The plate was incubated at 4° C. overnight. After the liquid was discarded, 200 μL of 1% Casein blocking solution (Thermo, 37528) was added to each well for blocking, and the plate was incubated at 37° C. for 2 h. After the blocking was completed, the blocking solution was discarded, and the plate was washed 3 times with a PBST buffer (PBS at pH 7.4 containing 0.1% tween-20) for later use. A biotin-labeled ligand protein at a fixed concentration was mixed with the antibody or fusion protein diluted in gradient, pre-incubated at 37° C. for 30 min, and added to a blocked microplate. The plate was incubated at 37° C. for 1.5 h. After the incubation was completed, the plate was washed 3 times with PBST. 100 μL of streptavidin-HRP (Invitrogen, 434323, diluted at a ratio of 1:4000) was added to each well, and the plate was incubated at 37° C. for 1 h. The supernatant was removed, and the plate was washed 3 times with PBST. 100 μL of TMB chromogenic substrate (KPL, 5120-0077) was added to each well, and the plate was incubated at room temperature for 10-15 min. The reaction was stopped by adding 50 μL of 1 M H₂SO₄ to each well. The plate was read for absorbance values at 450 nm on a microplate reader, the curves for the inhibition of the binding of the ligands to the receptors were fitted with software, and the IC₅₀ values were calculated.

[2] = molecular target: BAFF (R&D Systems, 7537-BF) (UniProt Q9Y275 134-285); experiment: cell-based or functional assay
[3] = molecular target: T2, human APRIL (5860-AP-010/CF, R&D Systems) (human, UniProt O75888 115-250, limits assumed); experiment: cell-based or functional assay
T2 sequence (looked up): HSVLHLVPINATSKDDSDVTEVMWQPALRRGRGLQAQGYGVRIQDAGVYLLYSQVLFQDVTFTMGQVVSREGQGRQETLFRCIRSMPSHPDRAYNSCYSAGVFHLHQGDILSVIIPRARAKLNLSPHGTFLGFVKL

[4] = molecular target: T2, human APRIL (5860-AP-010/CF, R&D …); experiment: competition ELISA: biotin-labeled APRIL to coated BCMA
Description: as §1, with “100 μL of TMB chromogenic substrate (KPL, 5120-0077) was added to each well, and the plate was incubated at room temperature for 10-15 min. The reaction was stopped by adding 50 μL of 1 M H₂SO₄ to each well.” left out, “calculated. […]” for “calculated.”

[5] = molecular target: T2, human APRIL (5860-AP-010/CF, R&D …); experiment: competition ELISA: biotin-labeled APRIL to coated TACI
Description: as §1, with “100 μL of TMB chromogenic substrate (KPL, 5120-0077) was added to each well, and the plate was incubated at room temperature for 10-15 min. The reaction was stopped by adding 50 μL of 1 M H₂SO₄ to each well.” left out, “calculated. […]” for “calculated.”

[6] = molecular target: T1, human BAFF (10056-HNCH, Sino biological); experiment: ELISA, BAFF coated, sample titrated
Description: The binding activity of the antibodies or fusion proteins for BAFF, APRIL, and IL-12/23 p40 was assayed by the ELISA method (coating an antigen protein). The specific procedures were as follows:
A BAFF (Sino biological, 10056-HNCH), APRIL (R&D Systems, 5860-AP-010/CF), or IL-12/23 p40 (Sino biological, 10052-H08H) protein was diluted to 1 μg/mL with a PBS (BasalMedia, B320) buffer at pH 7.4, and added to a 96-well microplate (Corning, 3590) at 100 μL/well. The plate was incubated at 4° C. overnight. After the liquid was discarded, 300 μL of 5% skim milk (BD, 232100) diluted with PBS was added to each well for blocking, and the plate was incubated at 37° C. for 2 h. After the blocking was completed, the blocking solution was discarded, and the plate was washed 3 times with a PBST buffer (PBS at pH 7.4 containing 0.1% tween-20). 100 μL of test antibody or fusion protein solution diluted in a gradient was added to each well, and the plate was incubated at 37° C. for 1 h. After the incubation was completed, the plate was washed 3 times with PBST. […] The plate was washed 3 times with PBST. […] The plate was read for absorbance values at 450 nm on a microplate reader, the binding curves of the antibodies to an antigen were fitted with software, and the EC₅₀ values were calculated.

B1: RCT-18 (Telitacicept) (Fc fusion)
chain: SRVDQEERFPQGLWTGVAMRSCPEEQYWDPLLGTCMSCKTICNHQSQRTCAAFCRSLSCRKEQGKFYDHLLRDCISCASICGQHPKQCAYFCENKLRSPVNLPPELDKTHTCPPCPAPEAEGAPSVFLFPPKPKDTLMISRTPEVTCVVVDVSHEDPEVKFNWYVDGVEVHNAKTKPREEQYNSTYRVVSVLTVLHQDWLNGKEYKCKVSNKALPSSIEKTISKAKGQPREPQVYTLPPSRDELTKNQVSLTCLVKGFYPSDIAVEWESNGQPENNYKTTPPVLDSDGSFFLYSKLTVDKSRWQQGNVFSCSVMHEALHNHYTQKSLSLSPGK
notes: Positive control; TACI part is positions 13-118 of the extracellular region of human TACI, the rest is Fc
[1]
  IC50: 19.2 nM
[2]
  IC50 (nM) for the inhibition of the BAFF-induced B cell proliferation: 0.382 nM
[3]
  IC50 (nM) for the inhibition of the APRIL-induced B cell proliferation: 1.09 nM
[4]
  IC50: 25.1 nM
[5]
  IC50: 3.3 nM
[6]
  EC50: 6.71 nM
